Here are results for four molecules from patent publication CN117603356A (HAIBO HUAJIAN HUZHOU PHARMACEUTICAL TECH CO LTD, dated 2024).

This experiment concerns the target T1, Human-pIgR-ECD-his抗原重组蛋白 (human, UniProt P01833 19-638).
T1 construct: extracellular domain; Recombinant antigen coated on the ELISA plate (200 ng/well); also called PI蛋白; not shown: his tag
The experiment is described as follows: ELISA, antigen coated, anti-human IgG Fc HRP.

T1 sequence (P01833 19-638): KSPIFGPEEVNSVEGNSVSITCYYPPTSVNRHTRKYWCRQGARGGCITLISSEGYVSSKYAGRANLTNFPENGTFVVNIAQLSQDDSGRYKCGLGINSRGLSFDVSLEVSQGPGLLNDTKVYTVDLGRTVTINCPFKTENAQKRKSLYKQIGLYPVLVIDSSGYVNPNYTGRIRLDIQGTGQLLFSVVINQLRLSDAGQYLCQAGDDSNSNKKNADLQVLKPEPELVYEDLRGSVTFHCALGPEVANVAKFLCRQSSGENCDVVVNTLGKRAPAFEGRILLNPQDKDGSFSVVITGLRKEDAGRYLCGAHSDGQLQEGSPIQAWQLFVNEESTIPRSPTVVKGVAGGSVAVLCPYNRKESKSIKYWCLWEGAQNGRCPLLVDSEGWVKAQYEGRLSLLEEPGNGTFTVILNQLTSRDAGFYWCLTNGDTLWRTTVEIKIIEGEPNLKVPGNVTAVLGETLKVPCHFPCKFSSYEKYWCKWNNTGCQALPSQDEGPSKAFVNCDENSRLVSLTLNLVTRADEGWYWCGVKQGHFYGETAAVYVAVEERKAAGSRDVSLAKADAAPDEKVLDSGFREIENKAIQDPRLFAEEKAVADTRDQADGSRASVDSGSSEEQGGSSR

B1: PI-28-hFc (Fc fusion)
chain: EVKLVESGGGSVQAGGSLRLSCAASGYTYSSACMGWFRQAPGKERDWVALIDGIGSTTYTDSVKGRFTISQDNAKNTLYLQMNSLKPEDTATYYCAADLLSGGYCHPVGGGARDWGGPVVADFTYWGQGTQVTVSS
notes: VHH inserted into the pFCIG-hIgG1 plasmid, expressed in HEK293F; also called 单克隆PI-28-hFc; not shown: human IgG1 Fc fragment (hFC) from the bought expression plasmid pFCIG-hIgG1
As to B1, the binding result is reported as “binds”.

B2: PI-19-hFc (Fc fusion)
chain: EVQLVESGGGSVQAGGSLRLSCAASGITISNNCMGWFRQAPGKEREGVALLYSTSSTSSQKSHADSVKGRFTISRDNAKNTVYLQMNSLKPEDSAMYYCAAKSGVCRWNWEYGMDYWDWGKGTLVTISS
notes: VHH inserted into the pFCIG-hIgG1 plasmid, expressed in HEK293F; also called 单克隆PI-19-hFc; not shown: human IgG1 Fc fragment (hFC) from the bought expression plasmid pFCIG-hIgG1
Turning to B2, the binding result was “binds”.

B3: PI-21-hFc (Fc fusion)
chain: QVKLVQSGGGLVQPGGSLRLSCAASGFTFENYAMGWLRQAPGEGLEWVSSINYNGDVTAYTTSVKGRFTVSRDNAKNTLYLQLNDLKIDDTAMYYCAKGRYGWALSREDYNTRGQGTQVTVSS
notes: VHH inserted into the pFCIG-hIgG1 plasmid, expressed in HEK293F; also called 单克隆PI-21-hFc; not shown: human IgG1 Fc fragment (hFC) from the bought expression plasmid pFCIG-hIgG1
For the molecule B3, the binding result is “binds”.

B4: PI-74-hFc (Fc fusion)
chain: EVKLVESGGGSVQAGGSLRLSCTASGPTYGRTCMGWFRQAPGREREGVATIETKGLTRYTYYADSVKGRFTISQDDAKNTLYLQMNSLKPEDTAMYYCAADGPGCSGGAFIARGRWYPHWGQGTQVTVSS
notes: VHH inserted into the pFCIG-hIgG1 plasmid, expressed in HEK293F; also called 单克隆PI-74-hFc; not shown: human IgG1 Fc fragment (hFC) from the bought expression plasmid pFCIG-hIgG1
For the molecule B4, the binding result is given as “binds”.
